Measured values taken from US20260258115A1 (MAPP BIOPHARMACEUTICAL, published 2026).

What was measured:
[1] = target: T1, RSV postfusion F (postF), subtype B (respiratory syncytial virus, subtype B); assay: BLI, IgG
T1 construct: also called F ΔFP; Postfusion subtype B

[2] = target: RSV prefusion F (preF), subtype B (respiratory syncytial virus, subtype B); assay: BLI, IgG
[3] = target: RSV prefusion F (preF), DS-Cav1 (Respiratory syncytial virus, UniProt P03420 26-513); assay: BLI, IgG on anti-human IgG sensor, 100 nM antigen
[4] = target: RSV postfusion F (postF), F ΔFP (Respiratory syncytial virus, UniProt P03420 26-513); assay: BLI, IgG on anti-human IgG sensor, 100 nM antigen
RSV F on RSV-A2 virus = RSV F on RSV-A2 virus (Respiratory syncytial virus, RSV-A2, UniProt P03420 26-574); assay: cell-based or functional assay
[5] = target: T2, RSV postfusion F (postF), subtype A (respiratory syncytial virus, subtype A, UniProt P03420 26-513); assay: BLI, IgG
T2 construct: also called F ΔFP; Postfusion subtype A

[6] = target: RSV prefusion F (preF), subtype A (respiratory syncytial virus, subtype A, UniProt P03420 26-513); assay: BLI, IgG

B1: ADI-21056 (antibody, V domains shown)
VH: EVQLLESGGGLVKPGGSLKLSCAASGFTLRSYYMHWVRQAPGRGLEWVSSISASSSYINYVDAVKGRFTVSRDNAKNSLFLQMNSLRAEDTAVYYCAREGGAMTNFGVVIDIWGQGTMVTVSS
VL: SYVLTQPPSVSGAPGQRVTISCTGSSSNIGAGYDVHWYQQLPGTAPKLLIYTNTNRPSGVPDRFSGSKSGTSASLAITGLQSDDEADYYCQSYDSSLSGPVVFGGGTKLTVL
Binder B1 has a Kd [1] of 63.4 nM and a Kd [2] of 0.223 nM.

B2: ADI-41660 (antibody, V domains shown)
VH: EVQLVQSGAEVKKPGSSVKVSCKASGGTFSRNAISWVRQAPGQGLEWMGGIIPIFGAANYPQKFQGRVTITADKSTSTAYMELSSLRSEDTALYYCARTMGEMTTTPVSIYYYGMDVWGQGTTVTVSS
VL: QSVLTQPPSVSAAPGQKVTISCSGSSSNIGINYVSWYQQLPGTAPKLLIYDNNKRPSGIPDRFSGSKSGTSATLGITGLQTGDEADYYCGTWDSSLSAGYVFGSGTKLTVL
For B2, the Kd [3] was 2.94 nM, the Kd [4] was 0.955 nM and the “Neutralization IC50 (RSV subtype A)” value (RSV F on RSV-A2 virus) was > 25 µg/mL.

B3: ADI-41607 (antibody, V domains shown)
VH: EVQLVESGPGLVKPSQTLSLTCTVSGGSINIGGYYWSWIRQHPEKGLEWIGYIYYSGTTYYNPSLESRVTISIDTSKNQFSLNLSSVTAADTAVYYCASVDQIGATRFDYWGQGTLVTVSS
VL: QPVLTQPRSVSGSPGQSVTLSCTGTSSDVGTYNYVSWYQHHPGKAPKLIIYDVNKRPSGVPDRFSGSKSGNTASLTISGLQAEDEADYYCCSYAGSYTLNYVFGTGTKLTVL
For B3, the Kd [3] was 4.24 nM, the Kd [4] was 0.709 nM and the “Neutralization IC50 (RSV subtype A)” value (RSV F on RSV-A2 virus) was > 25 µg/mL.

B4: ADI-14606 (antibody, V domains shown)
VH: QVQLVQSGGGLVQPGGSLRLSCAASGFTVSSNYMGWVRQAPGKGLEWVSVIYTGGSTYYADSVKGRFTISRDNFKNTLYLQMNSLRAEDTALYYCARDLYSSGWFGYWGQGTLVTVSS
VL: DIRLTQSPATLSVSPGERATLSCRASQSVSINLGWFQQKPGQSPRLLIYGTSTRATGIPARFSGSGSGTEFTLTISSLQSEDFAVYYCHQYNNWPYTFGQGTKVEIK
With B4 the Kd [1] was 0.659 nM, the Kd [5] was 1.28 nM and the binding result [6] was “no binding”.

B5: ADI-41611 (antibody, V domains shown)
VH: EVQLVESGGGLVKPGGSLRLSCAASGFTFSDYSMNWVRQAPGKGLEWVSSTSSGSTYIYYADSVKGRFTISRDNGKNSLYLQMNSLRAEDTAVYYCARAFRLGYDALDIWGQGTMVTVSS
VL: DIRMTQSPSSLSASVGDRVTIICRASQSISNYLNWYQQKPGKAPKLLIYVASNLQSGVPSRFSGSGSGTDFTLTISSLQPEDFATYYCQQTYSPPPTFGGGTKLEIK
notes: also called Ab 885; Antibody Number 885
For B5, the Kd [3] was 3.09 nM, the Kd [4] was 0.611 nM and the “Neutralization IC50 (RSV subtype A)” value (RSV F on RSV-A2 virus) was > 25 µg/mL.

B6: ADI-14598 (antibody, V domains shown)
VH: QVQLVQSGAEVKKPGSSVKVSCKASGGTFSSYAIYWVRQAPGQGLECMGGIIPIFGSANYAQKFQGRVTITADESTSTAYMELSSLRSEDTAVYYCATDSLKTTYYYGSSGYFRDHVWGQGTTVTVSS
VL: ETTLTQSPSSLSASVGDRVTITCRASQGISNYLAWYQQKPGKVPKLLIFAASTLQSGVPSRFSGSGSGTDFTLTISSLQPEDVATYYCQNFNSVLSFTFGPGTKVDIK
For B6, the Kd [1] was 4.81 nM, the Kd [2] was 7.07 nM and the Kd [5] was 0.452 nM.

B7: ADI-14404 (antibody, V domains shown)
VH: EVQLVESGGGLVQPGGSLRLSCAASGFTFSNFEMNWVRQAPGKGLEWVSYISSSGRIIYYADSVKGRFTISRDNARNSLYVQMNSLRVEDTAVYYCARAKAAAGHDLWGQGTLVTVSS
VL: EIVLTQSPSTLSASVGDRVTITCRASQSISPWLAWYQQKPGKAPKLLIYRASSLESGVPSRFSGSGSGTEFTLTISSLQPDDFATYYCQHYNSYLYTFGQGTKVEIK
notes: also called Ab 70
B7 was tested, and the Kd [1] was 0.498 nM, the Kd [5] was 0.627 nM and the binding result [6] was “no binding”.

B8: ADI-41662 (antibody, V domains shown)
VH: QVQLVQSGAEVKKAGESLKISCKGPRHSFTSYWIGWVRQMPGKGLEWMASIYPGDSDSRYSPSFEGQVTISADKSIDTAFLQWSSLKASDTAMYFCARYVGAVPGGNWYFDLWGRGTLVTVSS
VL: SYELIQLPSVSVSPGQTARITCSGDALPKKYAYWYQQKSGQAPVLVIYDDNKRPSGIPARFSGSSSGTMATLTISGAQVEDEGDYYCYSTDSTGDHRGVFGGGTKLTVL
In the case of B8, the Kd [3] is reported as 5.24 nM, the Kd [4] is reported as 1.21 nM and the “Neutralization IC50 (RSV subtype A)” value (RSV F on RSV-A2 virus) is reported as > 25 µg/mL.

B9: ADI-20997 (antibody, V domains shown)
VH: EVQLVESGGGVVQPGRSLRLSCAASGFPFNSYGMHWVRQAPGKGLEWLAVIYFDESTAYYADSVKGRFTISRDNSKSTLYLQMNSLRAADTAIYYCTTTVMIPYGGVFWGQGTLVTVSS
VL: EIVMTQSPGTLSLSPGDRATLSCRASQSVGSTHFAWYQQKPGQAPRLLIYAASIRATGIPDRFSGGGSGTDFTLTISRLAPEDFAVYYCQQYGSTPITFGQGTRLEIK
Work on B9 yielded a Kd [1] of 0.609 nM and a Kd [2] of 3.09 nM.

B10: ADI-14417 (antibody, V domains shown)
VH: EVQLVESGGGLVKPGGSLRLSCAASGFSFSSYSMHWVRQAPGKGLEWVSSISGSSTYIYHADSVKGRFTISRDNAERSLHLQMNSLRAEDTAVYYCARDPYSSGWLDSWGQGTLVTVSS
VL: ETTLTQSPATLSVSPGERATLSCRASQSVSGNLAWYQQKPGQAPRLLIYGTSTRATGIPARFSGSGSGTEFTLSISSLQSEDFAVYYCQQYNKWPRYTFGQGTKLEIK
notes: also called Ab 83
With B10 the Kd [1] was 3.99 nM, the Kd [5] was 1.63 nM and the binding result [6] was “no binding”.

B11: ADI-41664 (antibody, V domains shown)
VH: EVQLVQSGDEVKKPGASVKVSCKASGYPFSTYGISWVRQAPGQGLEWMGWIGVYTGGTNYAQKFQGRVTLTTDTSTSTAYMELRSLRSDDTAVYYCARGTGSYMTATYFDYWGQGTLVTVSS
VL: SYELTQPPSVSVAPGQTARITCGGNNIGSKAVHWYQQKPGQAPVLVVYDDYDRPSGIPERFSGSNSGNTATLTISRVEAGDEADYYCQVWDSSSDYVFGTGTKLTVL
notes: also called Ab 890; Antibody Number 890
In the case of B11, the Kd [3] is reported as 2.94 nM, the Kd [4] is reported as 0.825 nM and the “Neutralization IC50 (RSV subtype A)” value (RSV F on RSV-A2 virus) is reported as > 25 µg/mL.

B12: ADI-41604 (antibody, V domains shown)
VH: QVTLKESGAEVKKPGASVKVSCKASGYTFTGYYMHWVRQAPGQGLEWMGRINPNSGGTNYAQKFQGRVTMTRDTSISTAYMELSRLRSDDTAVYYCAREASRFGGFDYWGQGTLVTVSS
VL: DIVLTQSPSSLSASVGDRVTITCQASQDISNYLNWYQQKPGKAPKLLIYDASNLETGVPSRFSGSGSGTDFTFTISSLQPEDIATYYCQQYDNLLGYTFGQGTKVEIK
With B12 the Kd [3] was 17.8 nM, the Kd [4] was 29.2 nM and the “Neutralization IC50 (RSV subtype A)” value (RSV F on RSV-A2 virus) was > 25 µg/mL.

B13: ADI-41608 (antibody, V domains shown)
VH: QVQLVQSGDEVKKPGESLKISCKGSEHTFTNYWIAWVRQMPGKGLECMGVIWPDDSDTKYSPSFQGQVTISADKSINTAYLHLSSLRASDTAMYYCATSKFRTGFDFWGQGTLVTVSS
VL: NFMLTQPHSVSESPGKTVIISCTRSSGNIASNYVQWYQQRPGSSPTTVVYEDNQRPSGVPDRFSGSIDSSSNSASLTISGLKTEDEADYYCQSYDSSNPWVFGGGTKLTVL
With B13 the Kd [3] was 1.93 nM, the Kd [4] was 0.285 nM and the “Neutralization IC50 (RSV subtype A)” value (RSV F on RSV-A2 virus) was > 25 µg/mL.

B14: ADI-41605 (antibody, V domains shown)
VH: QVQLVESGPGLVKPSQTLSLTCSVSGGSISSDDHYWSWIRQHPGKGLEWIGYIYYSGYTNYNPSLKSRVTISVDTSKNQFSLRLSSVTAADTAVYYCARETDITIFGVVPVGYFDYWGQGTLVTVSS
VL: DIQVTQSPDSLAVSLGERATINCKSSQSILSSTNNKNFLAWYQQKPGQPPKLLLHWASTREFGVPDRFSGSGSGTEFTLTISSLQAEDVAVYYCQQYYTTPYTFGQGTKVEIK
notes: also called Ab 879; Antibody Number 879
With B14 the Kd [3] was 3.18 nM, the Kd [4] was 0.55 nM and the “Neutralization IC50 (RSV subtype A)” value (RSV F on RSV-A2 virus) was > 25 µg/mL.

B15: ADI-41626 (antibody, V domains shown)
VH: EVQLQESGPGLVKPSGTLSLTCAVAGGFISSGNWWSWIRQPPGKGLEWIGEVYHSGRTSYNPSLKSRVTISVDNSKNQFSLKMSSVTAADTAVYYCARVESYSSSGYYIAYFDNWGQGNLVTVSS
VL: DIVLTQSPSSLSASVGDRVTITCRASQSISRYLSWYQQKPGKAPKLLIYAAFSLQTGVPSRFSGSGSGTDFTLTISSFQTEDSATYYCQQSYSAPVTFGGGTKVEIK
With B15 the Kd [3] was 2.6 nM, the Kd [4] was 0.891 nM and the “Neutralization IC50 (RSV subtype A)” value (RSV F on RSV-A2 virus) was > 25 µg/mL.

B16: ADI-41644 (antibody, V domains shown)
VH: QVQLQQWGPGLVKPSETLSLSCAVSGGSLRGHFWSWIRQPPGKGLEWIGEINHGGRTNFNPSLKSRLTISEDSSKNQFSLKLSSVTAADTAVYYCARRWGYDSSGYYFFDYWGQGTLVTVSS
VL: EIQMTQSPATLSVSPGERATLSCRASQTLGFNLAWYQQKPGQSPRLLIYGASTRATGIPARFSGSGAGTEFTLTISSLQSEDFAVYFCQQYSNYYTFGQGTKVEIK
notes: also called Ab 887; Antibody Number 887
With B16 the Kd [3] was 3.03 nM, the Kd [4] was 1.1 nM and the “Neutralization IC50 (RSV subtype A)” value (RSV F on RSV-A2 virus) was > 25 µg/mL.

B17: ADI-41606 (antibody, V domains shown)
VH: EVQLLESGPGLVKPSETLSLTCTVSGGSVSSGGYYYTWIRQPPGKGLEWIGYAFYSGDTNYNPSLKSRVTISVDTSKNQFSLKLTSVTAADTAVYYCASTYTFGASGFDFWGQGTLVTVSS
VL: DIVMTQSPSFMSASVGDRVTITCRASQGISNWLLWYQQKPGKAPKLLIYAASSLQSGVPSRFSGSRSGTDFTLTISSLQPEDFAIYYCQQANSFPLTFGQGTRLEIK
notes: also called Ab 880; Antibody Number 880
With B17 the Kd [3] was 3.39 nM, the Kd [4] was 1.03 nM and the “Neutralization IC50 (RSV subtype A)” value (RSV F on RSV-A2 virus) was > 25 µg/mL.

B18: ADI-14605 (antibody, V domains shown)
VH: EVQLLESGPALVKPTQTLTLTCTFSGFSLTTSGMCVSWIRQPPGKALEWLARIDWDDDQYFSTSLRTRLSISKDTSKNQVVLTMTNMDPVDTATYYCARSALNIAARGFDIWGQGTTVTVSS
VL: QPGLTQPPSVSVSPGQTARITCSGDVLPKHFSYWYQQKPGQAPVLVIHRDSERPSGIPERFSGSSSGTTVTLTISGVQAEDEADYYCQFSDITNTVFGGGTKLTVL
Binder B18 has a Kd [1] of 0.399 nM and a Kd [2] of 2.72 nM.
